# In patent US20200317768A1 (published 2020):
# Positions count from the first letter of the chain named.
# T1: cynomolgus monkey FcγRIIa1 extracellular domain, C-terminal His-tag (cynomolgus monkey)
# T1 construct: also called cyno FcγRIIa1; cynoFcgRIIa1; not shown: His-tag added to C-terminus
# T1 chain: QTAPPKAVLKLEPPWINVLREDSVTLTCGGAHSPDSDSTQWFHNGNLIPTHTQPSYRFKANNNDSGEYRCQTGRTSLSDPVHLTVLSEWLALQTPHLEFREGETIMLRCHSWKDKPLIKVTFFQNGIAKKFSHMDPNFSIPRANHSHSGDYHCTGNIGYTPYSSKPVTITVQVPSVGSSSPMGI
# T2: human FcγRIIaR extracellular domain, C-terminal His-tag (human, UniProt P12318 34-217)
# T2 construct: also called human FcγRIIa (type R); FcgRIIaR; not shown: His-tag added to C-terminus
# T2 chain: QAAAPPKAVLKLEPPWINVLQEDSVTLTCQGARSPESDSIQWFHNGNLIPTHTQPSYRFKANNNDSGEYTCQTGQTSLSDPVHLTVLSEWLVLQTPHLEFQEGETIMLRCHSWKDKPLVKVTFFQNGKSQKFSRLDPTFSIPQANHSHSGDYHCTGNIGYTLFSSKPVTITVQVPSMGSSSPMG
# T3: cynomolgus monkey FcγRIIa3 extracellular domain, C-terminal His-tag (cynomolgus monkey)
# T3 construct: also called cyno FcγRIIa3; cynoFcgRIIa3; not shown: His-tag added to C-terminus
# T3 chain: T1 chain with P95T, T121A, A128S, H133P, D135N
# T4: human FcγRIIb extracellular domain, C-terminal His-tag (human, UniProt P31994 43-217)
# T4 construct: also called FcgRIIb (human); not shown: His-tag added to C-terminus
# T4 sequence: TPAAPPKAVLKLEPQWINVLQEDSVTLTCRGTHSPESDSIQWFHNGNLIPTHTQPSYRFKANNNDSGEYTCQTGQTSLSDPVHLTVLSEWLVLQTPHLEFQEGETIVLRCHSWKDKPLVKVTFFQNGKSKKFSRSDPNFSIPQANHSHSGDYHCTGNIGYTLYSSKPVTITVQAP
# T5: cynomolgus monkey FcγRIIa2 extracellular domain, C-terminal His-tag (cynomolgus monkey)
# T5 construct: also called cyno FcγRIIa2; cynoFcgRIIa2; not shown: His-tag added to C-terminus
# T5 chain: T1 chain with P95T, T121A, I127K, A128S, K130N, D135N, R142Q
# T6: human FcγRIIaH extracellular domain, C-terminal His-tag (human, UniProt P12318 34-217)
# T6 construct: also called human FcγRIIa (type H); FcgRIIaH; not shown: His-tag added to C-terminus
# T6 sequence: T2 chain with R134H
# B1: M103205H795-MY316/M103202L889-SK1 (antibody, human IgG1, kappa)
# heavy: QVTLKESGPVLVKPTETLTLTCTVSGIDLSHDDISWVRQAPGKGLEWVGIISYAGSTYYASWAKGRLTISKDTSKNQVVLTMTNMDPVDTATYYCARGVPAYSHGGDLWGQGTLVTVSSASTKGPSVFPLAPSSKSTSGGTAALGCLVKDYFPEPVTVSWNSGALTSGVHTFPAVLQSSGLYSLSSVVTVPSSSLGTQTYICNVNHKPSNTKVDKKVEPKSCDKTHTCPPCPAPELLLGPSVFLFPPKPKDTLMISRTPEVTCVVVDVSEEDPEVKFNWYVDGVEVHNAKTKPREELYNSTYRVVSVLTVLHQDWLNGKEYKCKVSNKALPKPIEKTISKAKGQPREPQVYTLPPSREEMTKNQVSLTCLVKGFYPSDIAVEWESNGQPENNYKTTPKVLDSDGSFFLYSKLTVDKSRWQQGNVFSCSVMHEALHNHYTQKSLSLSP
# light: DIVMTQSPATLSLSPGERATLSCTSSQSVYHANWLSWFQQKPGQPPKLLIYWASTLAYGVPSRFSGSGSGTDFTLTISSLQPEDAATYYCAGGYGGGRYAFGQGTKVEIKRTVAAPSVFIFPPSDEQLKSGTASVVCLLNNFYPREAKVQWKVDNALQSGNSQESVTEQDSKDSTYSLSSTLTLSKADYEKHKVYACEVTHQGLSSPVTKSFNRGEC
# How the values were obtained:
# [1] = target: T1, cynomolgus monkey FcγRIIa1 …; test: SPR (Biacore), KD of SG1 / KD of variant;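 also: relative to parent M103205H795-SG1 carrying the SG1 human heavy chain constant region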
# Description: (§1) The kinetic analysis of interactions between these antibodies and FcγR was carried out using BIACORE® T200 or BIACORE® 4000 (GE Healthcare). HBS-EP+ (GE Healthcare) was used as the running buffer, and the measurement temperature was set to 25° C. A chip produced by immobilizing Protein A. Protein A/G or mouse anti-human IgG kappa light chain (BD Biosciences) onto a Series S Sensor Chip CM4 or CM5 (GE Healthcare) by the amine-coupling method was used. […] After the measurement, the antibody captured on the chip was washed off by allowing reaction with 10 mM glycine-HCl, pH1.5 and 25 mM NaOH so that the chip was regenerated and used repeatedly. The sensorgrams obtained as measurement results were analyzed by the 1:1 Langmuir binding model using the BIACORE® Evaluation Software to calculate the binding rate constant ka (L/mol/s) and dissociation rate constant kd (l/s), and the dissociation constant KD (mol/L) was calculated from these values. […] Regarding such interactions, KD values were calculated using the following 1:1 binding model described in BIACORE® T100 Software Handbook BR1006-48 Edition AE.
# (§2) The behavior of interacting molecules according to the 1:1 binding model on BIACORE® can be described by Equation 1: Req=C·R max/(KD+C)+RI, wherein, Req is a plot of steady-state binding levels to analyte concentration. C is concentration, RI is bulk refractive index contribution in the sample, and Rmax is analyte binding capacity of the surface. When this equation is rearranged, KD can be expressed as Equation 2: KD=C·Rmax/(Req−RI)−C. KD can be calculated by substituting the values of Rmax, RI, and C into Equation 1 or Equation 2. From the current measurement conditions, RI=0, C=2 μmol/L can be used.
# [2] = target: T2, human FcγRIIaR extracellular domain, …; test: SPR (Biacore), KD of SG1 / KD of variant;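 also: relative to parent M103205H795-SG1 carrying the SG1 human heavy chain constant region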
# Description: as §1, §2
# [3] = target: T3, cynomolgus monkey FcγRIIa3 …; test: SPR (Biacore), KD of SG1 / KD of variant;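 also: relative to parent M103205H795-SG1 carrying the SG1 human heavy chain constant region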
# Description: as §1, §2
# [4] = target: T7, human FcγRIIIaV extracellular domain, C-terminal His-tag (human, UniProt P08637 17-208); test: SPR (Biacore), KD of SG1 / KD of variant;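 also: relative to parent M103205H795-SG1 carrying the SG1 human heavy chain constant region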
# T7 construct: also called FcgRIIIaV; not shown: His-tag added to C-terminus
# Description: as §1, §2
# [5] = target: T4, human FcγRIIb extracellular domain, …; test: SPR (Biacore), KD of SG1 / KD of variant
# Description: as §1, §2
# [6] = target: T8, cynomolgus monkey FcγRIIIaS extracellular domain, C-terminal His-tag (cynomolgus monkey, UniProt A3RFZ7 21-206 (rhesus entry)); test: SPR (Biacore), KD of SG1 / KD of variant
# T8 construct: also called cyno FcγRIIIaS; cynoFcγRIIIaS; not shown: His-tag added to C-terminus
# Description: as §1, §2
# [7] = target: T5, cynomolgus monkey FcγRIIa2 …; test: SPR (Biacore), KD of SG1 / KD of variant
# Description: as §1, §2
# [8] = target: T6, human FcγRIIaH extracellular domain, …; test: SPR (Biacore), KD of SG1 / KD of variant
# Description: as §1, §2
# [9] = target: T1, cynomolgus monkey FcγRIIa1 …; test: SPR (Biacore), antibody captured, FcgR analyte, 25 C
# Description: as §1, §2
# [10] = target: T2, human FcγRIIaR extracellular domain, …; test: as above
# Description: as §1, §2
# [11] = target: T3, cynomolgus monkey FcγRIIa3 …; test: as above
# Description: as §1, §2
# [12] = target: T7, human FcγRIIIaV extracellular domain, …; test: as above
# Description: as §1, §2
# [13] = target: T4, human FcγRIIb extracellular domain, …; test: as above
# Description: as §1, §2
# [14] = target: T8, cynomolgus monkey FcγRIIIaS …; test: as above
# Description: as §1, §2
# [15] = target: T6, human FcγRIIaH extracellular domain, …; test: as above
# Description: as §1, §2
# T8 sequence (A3RFZ7 21-206): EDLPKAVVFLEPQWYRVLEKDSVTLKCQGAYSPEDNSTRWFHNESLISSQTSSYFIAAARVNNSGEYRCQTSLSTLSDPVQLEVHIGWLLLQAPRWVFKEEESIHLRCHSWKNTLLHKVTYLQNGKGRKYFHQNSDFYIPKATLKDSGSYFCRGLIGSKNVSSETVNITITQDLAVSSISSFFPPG
# T7 sequence (P08637 17-208 F176V): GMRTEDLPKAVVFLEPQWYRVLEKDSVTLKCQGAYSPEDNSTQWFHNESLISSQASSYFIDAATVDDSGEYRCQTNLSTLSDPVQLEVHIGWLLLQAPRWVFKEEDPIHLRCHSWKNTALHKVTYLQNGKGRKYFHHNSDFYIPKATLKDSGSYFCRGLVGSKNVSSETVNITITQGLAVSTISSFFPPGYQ
binder,measurement,setting,value
B1,KD fold (SG1 = 1),[1],0.6 fold
same,KD fold (SG1 = 1),[2],1.1 fold
same,KD fold (SG1 = 1),[3],0.6 fold
same,KD fold (SG1 = 1),[4],0.05 fold
same,KD fold (SG1 = 1),[5],1.2 fold
same,KD fold (SG1 = 1),[6],0.15 fold
same,KD fold (SG1 = 1),[7],0.6 fold
same,KD fold (SG1 = 1),[8],1.6 fold
same,Kd,[9],5.1 µM
same,Kd,[10],1.1 µM
same,Kd,[11],22 µM
same,Kd,[12],17 µM
same,Kd,[13],4 µM
same,Kd,[14],2.4 µM
same,Kd,[15],0.44 µM
